This is an account of results in patent publication US20230035659A1, “Compositions and Methods for TTR Gene Editing and Treating ATTR Amyloidosis Comprising a Corticosteroid or Use Thereof” (Intellia Therapeutics, Inc., priority 2019, published 2023).

Strand notation (5' to 3'): a small letter for the sugar, then the base; units joined by * are phosphorothioate-linked, units joined directly phosphodiester-linked; [ ] holds rarer units or linkages, { } end groups; capitals alone tell only the bases. m = 2'-O-methyl; r = 2'-OH (RNA)

The test system of series [1] is TTR on-target site and potential off-target sites. Put plainly: Targeted amplicon sequencing of on-target and potential off-target sites in primary human hepatocytes treated with LNPs. Format: cell-based. The note with it: PHH; for highest concentration (of gRNA) at which the potential off-target sites were no longer detected: LNP 11 point dose response 0.001-46.55 nM gRNA; for indel rate observed at the on-target site / number of potential off-target sites identified by the oligo insertion assay at which indels were detected (low levels) / indels at the in silico predicted off-target sites: LNP with 100 ng Cas9 mRNA (SEQ ID NO: 1); for indel rate observed at the on-target site: near-saturating dose of LNP; for number of potential off-target sites identified by the oligo insertion assay at which indels were detected (low levels): near-saturating dose; for number of potential off-target sites identified by the oligo insertion assay at which indels were detected (low levels) / indels at the in silico predicted off-target sites / Indel Frequency, On-Target site: targeted amplicon sequencing; for on-target indel rate at the highest gRNA concentration without detected off-target sites: LNP, 0.57 nM (G000480) and 15.51 nM (G000486) gRNA. The protocol:
The HEK293_Cas9 cells used in Example 5 for detecting potential off-targets constitutively overexpress Cas9, leading to a higher number of potential off-target “hits” as compared to a transient delivery paradigm in various cell types. […] Accordingly, potential off-target sites identified by an oligo insertion method as used in Example 5 may be validated using targeted sequencing of the identified potential off-target sites.
In one approach, primary hepatocytes are treated with LNPs comprising Cas9 mRNA and a sgRNA of interest (e.g., a sgRNA having potential off-target sites for evaluation). The primary hepatocytes are then lysed and primers flanking the potential off-target site(s) are used to generate an amplicon for NGS analysis. Identification of indels at a certain level may validate potential off-target site, whereas the lack of indels found at the potential off-target site may indicate a false positive in the HEK293_Cas9 cell assay.
Following the identification of potential off-target sites in […] via the oligo insertion assay, certain potential sites were further evaluated by targeted amplicon sequencing, e.g., as described in Example 6. In addition to the potential off-target sites identified by the oligo insertion strategy, additional potential off-target sites identified by in silico prediction were included in the analysis.
To this end, PHH were treated with LNPs comprising 100 ng of Cas9 mRNA (SEQ ID NO:1) and the gRNA of interest at 14.68 nM (in a 1:1 ratio by weight), as described in Example 4. The LNPs were prepared using the cross-flow procedure described above and purified and concentrated using PD-10 columns and Amicon centrifugal filter units, respectively. The LNPs were formulated with an N:P ratio of 6.0 and contained Lipid A, Cholesterol, DSPC, and PEG2k-DMG in a 50:38:9:2 molar ratio, respectively. Following LNP treatment, isolated genomic DNA was analyzed by NGS (e.g., as described in Examples 1 and 6) to determine whether indels could be detected at the potential off-target site, which would be indicative of a Cas9-mediated cleavage event. Tables 33 and 34 show the potential off-target sites that were evaluated for the gRNAs G000480 and G000486, respectively.
As shown in FIGS. 21A-B and 22A-B and Table 35 below, indels were detected at low levels for only two of the potential off-target sites identified by the oligo insertion assay for G000480, and only one for G000486. […] Further, indels were only detected at these sites using a near-saturating dose of LNP, as the indel rates observed at the on-target sites for G000480 and G000486 were ˜97% and ˜91%, respectively (See Table 35).
A dose response assay was then performed in order to determine the highest dose of LNP in which no off-targets were detected. PHH were treated with LNPs comprising either G000480 or G000486 as described in Example 4. The doses ranged across 11 points with respect to gRNA concentration (0.001 nM, 0.002 nM, 0.007 nM, 0.02 nM, 0.06 nM, 0.19 nM, 0.57 nM, 1.72 nM, 5.17 nM, 15.51 nM, and 46.55 nM).

For another series, the system named is human TTR sequence. As to the kind of experiment: Liver editing (NGS) after LNP dosing of mice humanized with respect to the TTR gene. Format: in vivo, mouse. The note with it: LNP Formulation Numbers 1-5, 2 mg/kg total RNA, Cas9 mRNA SEQ ID NO: 2, 1:1 to guide. On the procedure:
Unless otherwise noted, CD-1 female mice, ranging from 6-10 weeks of age were used in each study. Animals were weighed and grouped according to body weight for preparing dosing solutions based on group average weight. LNPs were dosed via the lateral tail vein in a volume of 0.2 mL per animal (approximately 10 mL per kilogram body weight). […] Body weight was measured at twenty-four hours post-administration, and animals were euthanized at various time points by exsanguination via cardiac puncture under isoflourane anesthesia. Blood was collected into serum separator tubes or into tubes containing buffered sodium citrate for plasma as described herein. […]
Additional PCR was performed per the manufacturer's protocols (Illumina) to add chemistry for sequencing. […] The reads were aligned to a reference genome (e.g., the human reference genome (hg38), the cynomologus reference genome (mf5), the rat reference genome (rn6), or the mouse reference genome (mm10)) after eliminating those having low quality scores. The resulting files containing the reads were mapped to the reference genome (BAM files), where reads that overlapped the target region of interest were selected and the number of wild type reads versus the number of reads which contain an insertion, substitution, or deletion was calculated. […]

[2] abbreviates: LNP with 100 ng Cas9 mRNA and 14.68 nM gRNA.

B1: G000480: TTR sgRNA modified sequence, Human, SEQ ID NO: 87; guide sequence of CR003353 (nucleic acid)
guide: mA*mA*mA*rGrGrCrUrGrCrUrGrArUrGrArCrArCrCrUrGrUrUrUrUrArGrAmGmCmUmAmGmAmAmAmUmAmGmCrArArGrUrUrArArArArUrArArGrGrCrUrArGrUrCrCrGrUrUrArUrCrAmAmCmUmUmGmAmAmAmAmAmGmUmGmGmCmAmCmCmGmAmGmUmCmGmGmUmGmCmU*mU*mU*mU
Turning to B1, in series [1], the “highest concentration (of gRNA) at which the potential off-target sites were no longer detected” value is listed as 0.57 nM, the “indel rate observed at the on-target site” value is given as roughly 97%, the “number of potential off-target sites identified by the oligo insertion assay at which indels were detected (low levels)” value is “two” and the “indels at the in silico predicted off-target sites” value was “No indels were detected”. For the same molecule, in series [1], the “on-target indel rate at the highest gRNA concentration without detected off-target sites” value is on record as 84.60%. Further, in series [1] (LNP with 100 ng Cas9 mRNA and 14.68 nM gRNA, G000480 site INS-OT.2 (chr2: 192658562-192658582)), the “Indel Frequency, Off-Target site INS-OT.2” value is 1.43%. Moreover, the “Indel Frequency, Off-Target site INS-OT.4 (of G000480)” value in series [1] (LNP with 100 ng Cas9 mRNA and 14.68 nM gRNA, G000480 site INS-OT.4 (chr20: 9216118-9216138)) was found to be 0.97%. In addition, the “Indel Frequency, On-Target site” value in series [1] (setting [2]) was found to be 97.33%.

B2: G000499: TTR sgRNA modified sequence, Human, SEQ ID NO: 106; guide sequence of CR005303 (nucleic acid)
guide: mU*mG*mA*rArUrCrCrArArGrUrGrUrCrCrUrCrUrGrArGrUrUrUrUrArGrAmGmCmUmAmGmAmAmAmUmAmGmCrArArGrUrUrArArArArUrArArGrGrCrUrArGrUrCrCrGrUrUrArUrCrAmAmCmUmUmGmAmAmAmAmAmGmUmGmGmCmAmCmCmGmAmGmUmCmGmGmUmGmCmU*mU*mU*mU
On to B2, for which the “liver editing of the human TTR sequence (mean values)” value in the series on human TTR sequence is reported as roughly 60%.

B3: G000486: TTR sgRNA modified sequence, Human, SEQ ID NO: 93; guide sequence of CR003339 (nucleic acid)
guide: mA*mC*mA*rCrArArArUrArCrCrArGrUrCrCrArGrCrArGrUrUrUrUrArGrAmGmCmUmAmGmAmAmAmUmAmGmCrArArGrUrUrArArArArUrArArGrGrCrUrArGrUrCrCrGrUrUrArUrCrAmAmCmUmUmGmAmAmAmAmAmGmUmGmGmCmAmCmCmGmAmGmUmCmGmGmUmGmCmU*mU*mU*mU
For the molecule B3, in series [1], the “highest concentration (of gRNA) at which the potential off-target sites were no longer detected” value is 15.51 nM, the “indel rate observed at the on-target site” value is roughly 91%, the “number of potential off-target sites identified by the oligo insertion assay at which indels were detected (low levels)” value is reported as “one” and the “indels at the in silico predicted off-target sites” value is reported as “No indels were detected”. For the same molecule, in series [1], the “on-target indel rate at the highest gRNA concentration without detected off-target sites” value is reported as 89.50%. The “Indel Frequency, Off-Target site INS-OT.4 (of G000486)” value in series [1] (LNP with 100 ng Cas9 mRNA and 14.68 nM gRNA, G000486 site INS-OT.4 (chr5: 91397023-91397043)) is on record as 0.47%. In addition, in series [1] (setting [2]), the “Indel Frequency, On-Target site” value came out at 91.33%.

B4: G000494: TTR sgRNA modified sequence, Human, SEQ ID NO: 101; guide sequence of CR003360 (nucleic acid)
guide: mG*mU*mG*rArGrUrCrUrGrGrArGrArGrCrUrGrCrArUrGrUrUrUrUrArGrAmGmCmUmAmGmAmAmAmUmAmGmCrArArGrUrUrArArArArUrArArGrGrCrUrArGrUrCrCrGrUrUrArUrCrAmAmCmUmUmGmAmAmAmAmAmGmUmGmGmCmAmCmCmGmAmGmUmCmGmGmUmGmCmU*mU*mU*mU
Take B4: the “liver editing of the human TTR sequence (mean values)” value in the series on human TTR sequence is recorded as roughly 60%.
